According to publication PMC3622243:
pKd: −log10 of the molar value.

Legend:
[1] = target: LILRB2 on transduced Baf3 cells (UniProt Q8N423); assay: flow cytometry on cells
[2] = target: HLA-B27 homodimer (B27 H chain dimer, β2m-free) (human); assay: SPR

HLA-B27 homodimer (B27 H chain dimer, β2m-free) (complex)
percent reduction of bound B27 Flu NP heterotrimer tetramer over 1 hour [1]: 43%

LILRB2 incorporating the two immunoglobulin-like domains D1 and D2 (domain or fragment)
pKd [2]: 5.60
